Data taken from US20170022545.

These substances were tested against L7Ae (UniProt O29494) (assay: not given). Conditions: RNA microarray, 5 nM L7Ae.
Chain of L7Ae (O29494 whole entry): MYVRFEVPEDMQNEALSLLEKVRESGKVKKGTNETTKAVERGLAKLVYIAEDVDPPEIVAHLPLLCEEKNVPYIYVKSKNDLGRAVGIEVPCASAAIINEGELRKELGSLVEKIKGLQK

Substance	binding signal (log2 Cy3-Cy5+20)
hsa-mir-1-2 loop	11.3
hsa-mir-16-2 loop	11.5
hsa-mir-34a loop	11.3
hsa-mir-204 loop	11.7
hsa-mir-363 loop	12.5
hsa-mir-4479 loop	11.3
hsa-mir-6773 loop	11.3
hsa-mir-6834 loop	11.5
mmu-mir-466p loop	13.3
mmu-mir-6338 loop	11.6
mmu-mir-6995 loop	12.2
mmu-mir-7061 loop	11.8
mmu-mir-7220 loop	11.5

These substances were tested against T1, Lin28A (UniProt Q9H9Z2) (assay: pulldown). Conditions: TALON beads, 4 C.
T1 sequence: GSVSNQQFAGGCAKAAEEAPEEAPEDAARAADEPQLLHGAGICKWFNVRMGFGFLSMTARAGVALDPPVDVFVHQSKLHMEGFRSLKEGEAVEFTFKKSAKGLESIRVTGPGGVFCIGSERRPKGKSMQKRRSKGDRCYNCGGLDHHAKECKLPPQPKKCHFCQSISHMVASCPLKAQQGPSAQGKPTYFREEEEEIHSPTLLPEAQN

Substance	binding signal (Cy5 intensity)
hsa-mir-98 loop	6.41
hsa-mir-598 loop	6.47
hsa-mir-638 loop	6.27
hsa-mir-940 loop	6.33
hsa-mir-1233-1 loop	6.55
hsa-mir-1233-2 loop	6.43
hsa-mir-4296 loop	6.29
hsa-mir-4453 loop	6.54
hsa-mir-4524b loop	6.33
hsa-mir-4730 loop	6.28
hsa-mir-5004 loop	6.38
hsa-mir-6758 loop	6.35
hsa-mir-6775 loop	6.44
hsa-mir-6839 loop	6.39
hsa-mir-6884 loop	6.37

Each substance was assayed against U1A (Homo sapiens) (UniProt P09012) (assay: pulldown). Conditions: TALON beads, 4 C.
Chain of U1A (Homo sapiens) (P09012 2-282): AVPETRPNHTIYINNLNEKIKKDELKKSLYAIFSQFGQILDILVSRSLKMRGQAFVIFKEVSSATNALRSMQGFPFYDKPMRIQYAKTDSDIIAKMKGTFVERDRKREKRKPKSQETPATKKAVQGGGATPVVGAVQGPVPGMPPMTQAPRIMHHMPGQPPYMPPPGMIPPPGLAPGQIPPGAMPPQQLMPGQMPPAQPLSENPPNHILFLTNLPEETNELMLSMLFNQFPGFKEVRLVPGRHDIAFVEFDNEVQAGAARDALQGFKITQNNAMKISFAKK

Substance	binding signal (Cy5 intensity)
hsa-mir-378c loop	8.37
hsa-mir-412 loop	8.95
hsa-mir-422a loop	8.78
hsa-mir-493 loop	8.41
hsa-mir-637 loop	8.4
hsa-mir-658 loop	8.27
hsa-mir-1273h loop	8.2
hsa-mir-1302-6 loop	8.55
hsa-mir-2682 loop	8.27
hsa-mir-3661 loop	9.05
hsa-mir-4315-2 loop	8.28
hsa-mir-4499 loop	8.28
hsa-mir-4723 loop	8.48
hsa-mir-5196 loop	8.67
hsa-mir-6796 loop	8.72
hsa-mir-6807 loop	8.28
hsa-mir-6845 loop	9.06
hsa-mir-7848 loop	8.69
